Measurements from PMC9303355 (Diabetes, Obesity & Metabolism, 2022).

What was measured:
Format in all cases: in vivo, healthy subjects (human)
Safety assessments = conditions: single 0.3 IU/kg s.c.
[1] = Pharmacokinetics of plasma insulin after a single subcutaneous dose; conditions: healthy subjects, single 0.3 IU/kg s.c., PP population, median
[2] = test system: blood glucose (glucose infusion rate); assay: Automated euglycaemic glucose clamp; conditions: healthy subjects; single 0.3 IU/kg s.c.; PP population; median, N=39/38

Humulin‐R: US‐approved reference regular recombinant human insulin product (Eli Lilly and Company)
tolerability (Safety assessments; healthy subjects): generally well tolerated
headache (number of events) (Safety assessments; safety analysis set): eight
injection‐site reactions (number of AEs) (Safety assessments; safety analysis set): four
subjects with headache (Safety assessments; safety analysis set): eight
subjects with injection‐site reactions (Safety assessments; safety analysis set): three
λz (terminal elimination rate constant of insulin) ([1]; N=40/41): 0.5373 h⁻¹
t50%‐ins(late) ([1]; N=41): 6.23 h
t50%‐GIR(early) [2]: 1.33 h
t50%‐GIR(late) [2]: 7.03 h
tGIR.max (time to maximum glucose infusion rate) [2]: 4.15 h
